These results are taken from patent publication US20190330320A1.

The target in test [1] is pathological hyperphosphorylated tau from human Alzheimer's disease brain (AD-P3 antigens) (human) (UniProt P10636). As to the kind of experiment: fluid phase inhibition of AD-P3 tau capture on MSD plates coated with mouse C10-2; two-site fit, low affinity part.
Test [2] has the same target. As to the kind of experiment: fluid phase inhibition of AD-P3 tau capture on MSD plates coated with mouse C10-2; two-site fit, high affinity part.
The target is the same in test [3]. As to the kind of experiment: fluid phase inhibition of AD-P3 tau capture on MSD plates coated with mouse C10-2; two-site fit.
The target of test [4] is hyperphosphorylated human tau P301L (4R0N) from rTg4510 mouse brain (64 and 70 kDa species) (human) (UniProt P10636). As to the kind of experiment: binding to P301L human mutant tau isolated from 10 month old Tg4510 mice.
Sequence of hyperphosphorylated human tau P301L (4R0N) from rTg4510 mouse brain (64 and 70 kDa species) (human) (P10636 other isoform, or with tags, fused parts or gaps P301L P301L): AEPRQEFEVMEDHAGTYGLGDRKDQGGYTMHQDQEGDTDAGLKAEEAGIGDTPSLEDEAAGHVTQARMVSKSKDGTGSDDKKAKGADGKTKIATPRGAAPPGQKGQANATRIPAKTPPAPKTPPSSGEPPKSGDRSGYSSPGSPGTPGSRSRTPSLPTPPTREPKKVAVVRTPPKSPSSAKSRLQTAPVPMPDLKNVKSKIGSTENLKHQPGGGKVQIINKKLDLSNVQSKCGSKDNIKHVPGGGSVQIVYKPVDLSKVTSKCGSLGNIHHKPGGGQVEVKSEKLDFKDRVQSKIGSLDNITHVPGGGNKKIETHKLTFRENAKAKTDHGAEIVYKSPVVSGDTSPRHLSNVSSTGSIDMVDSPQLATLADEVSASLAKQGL
For test [5], the target named is pathological hyperphosphorylated tau from human Alzheimer's disease brain (AD-P3 antigens) (human) (UniProt P10636). As to the kind of experiment: fluid phase inhibition of Ptau antigen capture in C10-2 coated plate.

Sequence of pathological hyperphosphorylated tau from human Alzheimer's disease brain (AD-P3 antigens) (human) (P10636 other isoform, or with tags, fused parts or gaps limits assumed): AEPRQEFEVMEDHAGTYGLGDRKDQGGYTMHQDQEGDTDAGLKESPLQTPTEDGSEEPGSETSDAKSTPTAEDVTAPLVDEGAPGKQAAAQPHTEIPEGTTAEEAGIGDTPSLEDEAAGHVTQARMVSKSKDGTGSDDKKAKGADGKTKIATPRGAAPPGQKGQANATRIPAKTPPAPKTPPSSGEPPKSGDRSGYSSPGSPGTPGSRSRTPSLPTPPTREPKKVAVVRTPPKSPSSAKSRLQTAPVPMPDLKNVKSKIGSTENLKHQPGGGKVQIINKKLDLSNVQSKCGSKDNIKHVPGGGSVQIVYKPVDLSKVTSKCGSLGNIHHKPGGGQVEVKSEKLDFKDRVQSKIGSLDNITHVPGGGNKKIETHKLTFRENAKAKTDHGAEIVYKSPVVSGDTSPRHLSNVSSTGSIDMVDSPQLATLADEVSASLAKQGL
Sequence of IPN002 (antibody) (VH): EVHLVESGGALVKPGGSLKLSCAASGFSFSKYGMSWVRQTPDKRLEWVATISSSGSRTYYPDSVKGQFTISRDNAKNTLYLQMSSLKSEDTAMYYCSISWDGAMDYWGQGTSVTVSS
Sequence of IPN002 (antibody) (VL): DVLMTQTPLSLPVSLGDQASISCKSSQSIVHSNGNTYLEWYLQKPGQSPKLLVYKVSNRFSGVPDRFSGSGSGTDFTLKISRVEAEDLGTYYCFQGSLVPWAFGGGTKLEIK
Sequence of HJ8.5 (antibody) (VH): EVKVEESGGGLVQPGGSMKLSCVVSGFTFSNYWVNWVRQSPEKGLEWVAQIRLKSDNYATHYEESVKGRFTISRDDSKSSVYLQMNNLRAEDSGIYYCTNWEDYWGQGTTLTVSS
Sequence of HJ8.5 (antibody) (VL): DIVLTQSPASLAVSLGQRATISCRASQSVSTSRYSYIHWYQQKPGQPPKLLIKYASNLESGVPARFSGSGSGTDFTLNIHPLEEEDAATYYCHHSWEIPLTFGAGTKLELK

Regarding Antibody C10-2 (humanized C10-2), the IC50 came to 630 nM in test [1] and 14 nM in test [2]. Also, the share of the high affinity binding in the total binding in test [3] is under 25%.

Consider HJ8.5 (antibody), for which the TG/wt (binding to P301L tau from Tg4510 mice over wild type) in test [4] turned out to be 51.

Take IPN002 (antibody): the TG/wt (binding to P301L tau from Tg4510 mice over wild type) in test [4] is 37.

The substance PHF-13 (antibody) registered a half-maximal inhibitory concentration (IC50) in test [5] of 500 to 1000 nM.

As usually defined, the IC50 is the concentration that gives 50% inhibition. Low readings indicate greater potency, high ones weaker potency.
